Here are results for one molecule from article doi:10.1101/2021.03.12.435194, “Antibody evasion by the Brazilian P.1 strain of SARS-CoV-2” (bioRxiv, 2021).

This experiment addresses T1, WT RBD (Wuhan) (SARS-CoV-2, Wuhan (RBD identical in …, UniProt P0DTC2)).
T1 construct: also called Wuhan RBD; native RBD
The experiment is described as follows: crystal structure. The settings on record: both partners purified.

B1: EY6A Fab (Fab, V domains shown)
VH: EVQLVESGGGVVQPGRSLRLSCAASAFTFSSYDMHWVRQAPGKGLEWVAVISYDGSNKYYADSVKGRFTISRDNSKNTLYLQMNSLRAEDTAVYYCAKDGGKLWVYYFDYWGQGTLVTVSS
VL: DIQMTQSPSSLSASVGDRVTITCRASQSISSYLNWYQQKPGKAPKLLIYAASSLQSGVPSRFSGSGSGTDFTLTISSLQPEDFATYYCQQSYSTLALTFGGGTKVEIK
On to B1, for which the binding result was “binds”.
